Assay [1] addresses T1, human PD-L1 expressed on cells (CHO-PD-L1, HCC1954, HCC827) (human, UniProt Q9NZQ7 19-290).
T1 construct: whole, on cells; also called hPD-L1; PD-L1 expressing cells
In words: flow cytometry, inhibition of biotinylated PD-1 binding to HCC827 cells. In general terms: In flow cytometry, cells or beads pass a laser one at a time.

The target of assay [2] is T2, CD3e on Jurkat PD-1 NFAT reporter T cells or on T cells of human PBMCs (human, UniProt P07766 23-207). Description: cell-based or functional assay.
Assay [3] addresses T1, human PD-L1 expressed on cells …. In words: flow cytometry, inhibition of biotinylated PD-1 binding to HCC1954 cells.
The target in assay [4] is T2, CD3e on Jurkat PD-1 NFAT reporter T …. In words: cell-based or functional assay. This is another data set of the same source.
Assay [5] concerns the target T3, Fc-tagged human PD-L1 extracellular domain (SinoBiological, cat. 10084-H02H) (human, UniProt Q9NZQ7 19-238).
T3 construct: extracellular domain; also called hPD-L1; not shown: Fc tag of the bought protein
Description: SPR, captured Fc-PD-L1 ECD, scFv analyte, kinetic.

Assay [6] addresses T1, human PD-L1 expressed on cells …. Description: cell-based or functional assay.
In assay [7] the target is T3, Fc-tagged human PD-L1 extracellular …. In words: SPR, alanine mutants of 33-03-G02. A general note: In SPR one partner is held on a chip, and binding of the other changes the refractive index at the surface.
In assay [8] the target is T1, human PD-L1 expressed on cells …. Description: flow cytometry, CHO-PD-L1 cells.

B1: PRO1455 (multispecific antibody)
chain 1: DIQMTQSPSSLSASVGDRVTITCQASENIYSFLAWYQQKPGKAPKLLIYSASKLAAGVPSRFSGSGSGTDFTLTISSLQPEDFATYYCQQTNRYSNPDIYNVFGTGTKVTVLGTVAAPSVFIFPPSDEQLKSGTASVVCLLNNFYPREAKVQWKVDNALQSGNSQESVTEQDSKDSTYSLSSTLTLSKADYEKHKVYACEVTHQGLSSPVTKSFNRGECGGGGSGGGGSDIQMTQSPSSLSASVGDRVTITCQSSQSVFSNNYLAWFQQKPGQSPKRLIYSASTLASGVPSRFSGSGSGTDFTLTISSLQPEDFATYYCLGSYACSSADCYVFGTGTKVTVLGGGGGSGGGGSGGGGSGGGGSEVQLVESGGGLVQPGGSLRLSCAASGFSLSSYDMSWVRQAPGKGLAWIGASYASGPTYYASWAKGRFTISRDNSKNTVYLQMNSLRAEDTATYFCARGGWTGTSHSNIWGQGTLVTVSS
chain 2: EVQLVESGGGLVQPGGSLRLSCAASGIDFNSNYYMCWVRQAPGKGLEWIGCIYVGSHVNTYYANWAKGRFTISRDNSKNTVYLQMNSLRAEDTAVYYCATSGSSVLYFKFWGQGTLVTVSSASTKGPSVFPLAPSSKSTSGGTAALGCLVKDYFPEPVTVSWNSGALTSGVHTFPAVLQSSGLYSLSSVVTVPSSSLGTQTYICNVNHKPSNTKVDKKVEPKSCGGGGSGGGGSDIQMTQSPSSLSASVGDRVTITCQASQSINDYLAWYQQKPGKAPKLLIYKASTLASGVPSRFSGSGSGTDFTLTISSLQPEDFATYYCQQAYIITDIDNVFGTGTKVTVLGGGGGSGGGGSGGGGSGGGGSQVQLQESGPGLVKPSETLSLTCKVSGFSFSSGYDMCWIRQPPGKGLEWIGCVVAGSVDITYYASWAKGRVTISVDSSKNQFSLKLSSVTAADTAVYYCARKDAYSDAFNLWGQGTLVTVSS
In the case of B1, the figures for the IC50 in assay [1] and in assay [3] were 2.8 µg/mL and 2.85 µg/mL, respectively. Also, in assay [2], the “IC50, NFAT reporter, HCC1954 cells” value worked out at 4.07 nM. Also, the “fold weaker activation than PRO1454, NFAT reporter, HCC1954 cells” value in assay [4] was found to be 27 fold.

B2: PRO1075 (scFv, V domains shown)
VH: QVQLQESGPGLVKPSETLSLTCKVSGFSFSSGYDMCWIRQPPGKGLEWIGCVVAGSVDITYYASWAKGRVTISVDSSKNQFSLKLSSVTAADTAVYYCARKDAYSDAFNLWGQGTLVTVSS
VL: DIQMTQSPSSLSASVGDRVTITCQASQSINDYLAWYQQKPGKAPKLLIYKASTLASGVPSRFSGSGSGTDFTLTISSLQPEDFATYYCQAGYIITDIDNVFGTGTKVTVLG
notes: also called 33-03-G02 VL-Q108A
On to B2, for which, in assay [5], binding was characterised by a dissociation constant (Kd) of 12.2 nM; the koff – broadly, the first-order rate constant of dissociation – amounted to 0.0205 s⁻¹; the kon (in general, the rate constant with which the complex forms) was found to be 1.67e+06 M⁻¹ s⁻¹. The “IC50, neutralization of PD-L1 in NF-AT potency assay” value in assay [6] was determined as 0.828 µg/mL. Also, the “fold reduction of affinity vs the original domain” value in assay [7] is more than 100 fold. For the same molecule, in assay [8], a half-maximal response (EC50) required 333 µg/mL.
